US20150368299A1 (published 2015)

T1: Aβ(12-42) globulomer (human)
T1 construct: Non-covalent oligomer; the subunit number was not measured
T1 peptide: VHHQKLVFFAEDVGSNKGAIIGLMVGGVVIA

B1: Anti-Aβ monoclonal antibody clone 6E10 (Covance cat. no. SIG-39320) (antibody, V domains shown)
VH: EVQLQQSGAELVKPGASVKLCTASGFNIKDTYIHWVKQRPEQGLEWIGRFDPVNVNTRYDSRFRGKATITSDASSNTAYLHLNSLTSEDTAVYYCSRSYYNGRRRFTYWGQGTLVTVSA
VL: DIVMTQSPSSLTVTAGEKVALTCKASQSLLSSGNQKNYLTWYQQKPGQPPKLLIYWASIRESGVPDRFTGSGSGTFFTLTISSVQAEDLAVYYCQNDYNYPFTFGSGTKLEIK
B2: murine monoclonal anti-Aβ(20-42) globulomer antibody m10B3 (antibody, V domains shown)
VH: EVKLVESGGGLVQPGGSRKLSCAASGFTFSDYEMVWVRQAPGEGLEWVAYISSGSRTIHYADTVKGRFTISRDNPKNTLFLQMSSLRSEDTAMYYCARTLLRLHFDYWGQGTILTVSS
VL: not shown
notes: Murine hybridoma antibody from mice immunized with Aβ(20-42) globulomer; also called mAb 10B3; Anti-Aβ monoclonal antibody clone m10B3
B3: murine monoclonal anti-Aβ(20-42) globulomer antibody m4C9 (antibody, V domains shown)
VH: QVQLQQPGAELVKPGASVKLSCKAPGYTFTSYWMHWVKQRPGQGLEWIGRIDPKSGDTKYTEKFKSKATLTVDKPSSTAYMQLSSLTSEDSAVYYCTTMSKLSGTHAWFAYWGQGTLVTVSA
VL: DIKMTQSPSSMYASLGERVTITCKASQDINSYLTWFQQKPGKSPKTLIYRANRLVDGVPSRFSGSGSGQDYSLTISSLEYEDMGIYYCLQYDEFPLTFGAGTKLELK
notes: Murine hybridoma antibody from mice immunized with Aβ(20-42) globulomer; also called mAb 4C9; Anti-Aβ monoclonal antibody clone m4C9

Columns and labels:
Test in all cases: dot blot with densitometry; Aβ form dotted on nitrocellulose in serial dilution, antibody 0.2 µg/ml; higher value = weaker recognition
[1] = biological target: T1, Aβ(12-42) globulomer
Description: (§1) The dot blot was developed with 10 ml BM Blue POD Substrate for 10 min. The development was stopped by intense washing of the dot blot with H₂O. Quantitative evaluation was done based on a densitometric analysis (GS800 densitometer (BioRad) and software package Quantity one, Version 4.5.0 (BioRad)) of the dot intensity. […] This threshold value was determined for every dot blot independently. The calculated value indicates the relation between recognition of Aβ(20-42) globulomer and the respective Aβ form for the given antibody.
(§2) The individual Aβ forms were applied in serial dilutions and incubated with the respective antibodies for immune reaction (1=Aβ(1-42) monomer, 0.1% NH₄OH; 2=Aβ(1-40) monomer, 0.1% NH₄OH; 3=Aβ(1-42) monomer, 0.1% NaOH; 4=Aβ(1-40) monomer, 0.1% NaOH; 5=Aβ(1-42) globulomer; 6=Aβ(12-42) globulomer; 7=Aβ(20-42) globulomer; 8=Aβ(1-42) fibril preparation; 9=sAPPα (Sigma); (first dot: 1 pmol)).

[2] = biological target: T2, Aβ(1-42) globulomer (human, UniProt P05067 672-713)
T2 construct: the number was not measured for this preparation; also called 38/48-kDa Aβ(1-42) globulomer; Aβ(1-42) globular oligomer
Description: as §1, §2

[3] = biological target: T3, Aβ(1-42) fibril (human, UniProt P05067 672-713)
T3 construct: also called Aβ(1-42) fibrils; Aβ(1-42) fibril preparation
Description: as §1, §2

[4] = biological target: T4, Aβ(1-40) monomer in 0.1% NH4OH (human)
T4 construct: The range counts on the Aβ peptide; also called Aβ(1-40) monomer, 0.1% NH4OH
T4 sequence (peptide, as listed by the source): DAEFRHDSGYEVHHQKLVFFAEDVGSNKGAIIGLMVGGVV
Description: as §1, §2

[5] = biological target: T5, Aβ(1-42) monomer in 0.1% NH4OH (human)
T5 construct: The range counts on the Aβ peptide; also called Aβ(1-42) monomer, 0.1% NH4OH
Description: as §1, §2

[6] = biological target: T6, Aβ(1-42) monomer in 0.1% NaOH (human)
T6 construct: also called Aβ(1-42) monomer, 0.1% NaOH
Description: as §1, §2

Binder | dot blot relation of recognition of Aβ(20-42) globulomer to recognition of this Aβ form [1] | dot blot relation of recognition of Aβ(20-42) globulomer to recognition of this Aβ form [2] | dot blot relation of recognition of Aβ(20-42) globulomer to recognition of this Aβ form [3] | dot blot relation of recognition of Aβ(20-42) globulomer to recognition of this Aβ form [4] | dot blot relation of recognition of Aβ(20-42) globulomer to recognition of this Aβ form [5] | dot blot relation of recognition of Aβ(20-42) globulomer to recognition of this Aβ form [6]
B1 | 6 | – | – | – | – | –
B2 | 41000 | 57000 | – | – | – | –
B3 | 60000 | 30000 | 32600 | 27300 | 36000 | 39500
